Measured values taken from publication PMC10397247.
Blank lines part the entries; values can stand above or below the binder they belong to.

Experiments:
4H1842-AA = biological target: T1, 4H1842-AA; test: two-hybrid library CCmax; conditions: mean of both orientations;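 also: natural log of median RNA to DNA barcode read ratio; higher means stronger binding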
T1 chain: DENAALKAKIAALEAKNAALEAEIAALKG

4H2330-AA = biological target: T2, 4H2330-AA; test: two-hybrid library CCmax; conditions: mean of both orientations;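 also: natural log of median RNA to DNA barcode read ratio; higher means stronger binding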
T2 chain: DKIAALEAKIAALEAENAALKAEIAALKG

4H629-AA = biological target: T3, 4H629-AA; test: two-hybrid library CCmax; conditions: mean of both orientations;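 also: natural log of median RNA to DNA barcode read ratio; higher means stronger binding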
T3 chain: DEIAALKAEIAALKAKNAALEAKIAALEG

4H3130-AA = biological target: T4, 4H3130-AA; test: two-hybrid library CCmax; conditions: mean of both orientations;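 also: natural log of median RNA to DNA barcode read ratio; higher means stronger binding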
T4 chain: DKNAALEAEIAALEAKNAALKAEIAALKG

4H2109-AA = biological target: T5, 4H2109-AA; test: two-hybrid library CCmax; conditions: mean of both orientations;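 also: natural log of median RNA to DNA barcode read ratio; higher means stronger binding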
T5 chain: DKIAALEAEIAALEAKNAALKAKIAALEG

4H3410-AA = biological target: T6, 4H3410-AA; test: two-hybrid library CCmax; conditions: mean of both orientations;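 also: natural log of median RNA to DNA barcode read ratio; higher means stronger binding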
T6 chain: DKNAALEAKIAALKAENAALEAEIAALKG

4H2274-AA = biological target: T7, 4H2274-AA; test: two-hybrid library CCmax; conditions: mean of both orientations
T7 chain: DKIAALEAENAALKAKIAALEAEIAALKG

4H3165-AA = biological target: T8, 4H3165-AA; test: two-hybrid library CCmax; conditions: mean of both orientations
T8 chain: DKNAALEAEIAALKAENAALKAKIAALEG

4H570-AA = biological target: T9, 4H570-AA; test: two-hybrid library CCmax; conditions: mean of both orientations
T9 chain: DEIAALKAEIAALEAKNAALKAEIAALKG

4H2473-AA = biological target: T10, 4H2473-AA; test: two-hybrid library CCmax; conditions: mean of both orientations
T10 chain: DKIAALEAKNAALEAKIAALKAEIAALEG

4H1597-AA = biological target: T11, 4H1597-AA; test: two-hybrid library CCmax
T11 chain: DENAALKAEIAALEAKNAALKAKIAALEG

4H3590-AA = biological target: T12, 4H3590-AA; test: two-hybrid library CCmax; conditions: mean of both orientations
T12 chain: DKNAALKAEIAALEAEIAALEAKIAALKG

4H171-AA = biological target: T13, 4H171-AA; test: two-hybrid library CCmax; conditions: mean of both orientations
T13 chain: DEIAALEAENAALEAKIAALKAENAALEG

4H2649-AA = biological target: T14, 4H2649-AA; test: two-hybrid library CCmax; conditions: mean of both orientations
T14 chain: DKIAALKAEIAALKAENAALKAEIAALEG

4H2162-AA = biological target: T15, 4H2162-AA; test: two-hybrid library CCmax; conditions: mean of both orientations
T15 chain: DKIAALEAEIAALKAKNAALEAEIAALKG

4H2725-AA = biological target: T16, 4H2725-AA; test: two-hybrid library CCmax; conditions: mean of both orientations
T16 chain: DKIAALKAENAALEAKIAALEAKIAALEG

4H2698-AA = biological target: T17, 4H2698-AA; test: two-hybrid library CCmax; conditions: mean of both orientations
T17 chain: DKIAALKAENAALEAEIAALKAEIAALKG

4H3120-AA = biological target: T18, 4H3120-AA; test: two-hybrid library CCmax; conditions: mean of both orientations
T18 chain: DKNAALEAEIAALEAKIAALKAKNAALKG

4H930-AA = biological target: T19, 4H930-AA; test: two-hybrid library CCmax
T19 chain: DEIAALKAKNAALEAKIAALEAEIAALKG

4H3016-AA = biological target: T20, 4H3016-AA; test: two-hybrid library CCmax; conditions: mean of both orientations
T20 chain: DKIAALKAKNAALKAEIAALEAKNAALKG

4H2438-AA = biological target: T21, 4H2438-AA; test: two-hybrid library CCmax; conditions: mean of both orientations
T21 chain: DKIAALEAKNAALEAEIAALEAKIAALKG

4H2389-AA = biological target: T22, 4H2389-AA; test: two-hybrid library CCmax; conditions: mean of both orientations
T22 chain: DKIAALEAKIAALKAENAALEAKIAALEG

4H3697-AA = biological target: T23, 4H3697-AA; test: two-hybrid library CCmax; conditions: mean of both orientations
T23 chain: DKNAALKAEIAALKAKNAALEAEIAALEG

4H310-AA = biological target: T24, 4H310-AA; test: two-hybrid library CCmax; conditions: mean of both orientations
T24 chain: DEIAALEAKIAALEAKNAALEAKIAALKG

4H458-AA = biological target: T25, 4H458-AA; test: two-hybrid library CCmax; conditions: mean of both orientations
T25 chain: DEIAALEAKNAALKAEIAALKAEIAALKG

4H891-AA = biological target: T26, 4H891-AA; test: two-hybrid library CCmax; conditions: mean of both orientations
T26 chain: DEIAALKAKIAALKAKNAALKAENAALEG

4H485-AA = biological target: T27, 4H485-AA; test: two-hybrid library CCmax; conditions: mean of both orientations
T27 chain: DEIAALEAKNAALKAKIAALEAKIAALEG

4H536-AA = biological target: T28, 4H536-AA; test: two-hybrid library CCmax; conditions: mean of both orientations
T28 chain: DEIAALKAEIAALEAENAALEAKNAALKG

4H2865-AA = biological target: T29, 4H2865-AA; test: two-hybrid library CCmax; conditions: mean of both orientations
T29 chain: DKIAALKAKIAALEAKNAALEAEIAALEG

4H710-AA = biological target: T30, 4H710-AA; test: two-hybrid library CCmax; conditions: mean of both orientations
T30 chain: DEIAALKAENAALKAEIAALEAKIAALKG

4H2253-AA = biological target: T31, 4H2253-AA; test: two-hybrid library CCmax; conditions: mean of both orientations
T31 chain: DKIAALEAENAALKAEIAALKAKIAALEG

4H3753-AA = biological target: T32, 4H3753-AA; test: two-hybrid library CCmax; conditions: mean of both orientations
T32 chain: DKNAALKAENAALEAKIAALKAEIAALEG

4H3381-AA = biological target: T33, 4H3381-AA; test: two-hybrid library CCmax
T33 chain: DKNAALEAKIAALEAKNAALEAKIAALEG

4H3865-AA = biological target: T34, 4H3865-AA; test: two-hybrid library CCmax; conditions: mean of both orientations
T34 chain: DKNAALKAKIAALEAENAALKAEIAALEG

4H3009-AA = biological target: T35, 4H3009-AA; test: two-hybrid library CCmax; conditions: mean of both orientations
T35 chain: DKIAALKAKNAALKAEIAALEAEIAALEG

4H1864-AA = biological target: T36, 4H1864-AA; test: two-hybrid library CCmax; conditions: mean of both orientations
T36 chain: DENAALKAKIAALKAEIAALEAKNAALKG

4H3395-AA = biological target: T37, 4H3395-AA; test: two-hybrid library CCmax; conditions: mean of both orientations
T37 chain: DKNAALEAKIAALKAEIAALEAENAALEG

4H1877-AA = biological target: T38, 4H1877-AA; test: two-hybrid library CCmax; conditions: mean of both orientations
T38 chain: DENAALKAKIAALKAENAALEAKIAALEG

4H850-AA = biological target: T39, 4H850-AA; test: two-hybrid library CCmax; conditions: mean of both orientations
T39 chain: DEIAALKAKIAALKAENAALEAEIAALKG

4H797-AA = biological target: T40, 4H797-AA; test: two-hybrid library CCmax; conditions: mean of both orientations
T40 chain: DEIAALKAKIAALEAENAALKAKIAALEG

4H1626-AA = biological target: T41, 4H1626-AA; test: two-hybrid library CCmax; conditions: mean of both orientations
T41 chain: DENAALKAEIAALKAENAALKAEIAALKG

4H745-AA = biological target: T42, 4H745-AA; test: two-hybrid library CCmax; conditions: mean of both orientations
T42 chain: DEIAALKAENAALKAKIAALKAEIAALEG

4H909-AA = biological target: T43, 4H909-AA; test: two-hybrid library CCmax; conditions: mean of both orientations
T43 chain: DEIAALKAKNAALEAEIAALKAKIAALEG

4H94-AA = biological target: T44, 4H94-AA; test: two-hybrid library CCmax; conditions: mean of both orientations
T44 chain: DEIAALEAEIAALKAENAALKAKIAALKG

4H174-AA = biological target: T45, 4H174-AA; test: two-hybrid library CCmax; conditions: mean of both orientations
T45 chain: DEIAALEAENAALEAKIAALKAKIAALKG

4H3592-bA = biological target: T46, 4H3592-bA; test: two-hybrid library CCNG1
T46 chain: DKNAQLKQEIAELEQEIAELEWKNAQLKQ

4H4038-bA = biological target: T47, 4H4038-bA; test: two-hybrid library CCNG1
T47 chain: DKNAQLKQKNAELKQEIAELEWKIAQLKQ

4H3907-bA = biological target: T48, 4H3907-bA; test: two-hybrid library CCNG1
T48 chain: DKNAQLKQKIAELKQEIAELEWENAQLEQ

4H3601-bA = biological target: T49, 4H3601-bA; test: two-hybrid library CCNG1
T49 chain: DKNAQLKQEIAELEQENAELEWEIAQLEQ

P4A-bH = biological target: T50, P4A-bH; test: two-hybrid library CCNG1
T50 chain: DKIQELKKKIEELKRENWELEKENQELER

interaction score (4H1842-AA): -0.303
interaction score (4H2330-AA): -1.59
interaction score (4H629-AA): 0.0113
interaction score (4H3130-AA): -1.55
interaction score (4H2109-AA): -1.06
interaction score (4H3410-AA): 2
interaction score (4H2274-AA): -1.74
interaction score (4H3165-AA): -0.486
interaction score (4H570-AA): -1.39
interaction score (4H2473-AA): -1.3
interaction score (4H1597-AA): 0.478
interaction score (4H3590-AA): 0.533
interaction score (4H171-AA): -0.742
interaction score (4H2649-AA): -0.826
interaction score (4H2162-AA): -1.31
interaction score (4H2725-AA): 0.827
interaction score (4H2698-AA): -0.556
interaction score (4H3120-AA): -1.49
interaction score (4H930-AA): -1.69
interaction score (4H3016-AA): -1.4
interaction score (4H2438-AA): -0.641
interaction score (4H2389-AA): 2.15
interaction score (4H3697-AA): 0.353
interaction score (4H310-AA): -0.161
interaction score (4H458-AA): -1.71
interaction score (4H891-AA): -1.56
interaction score (4H485-AA): -1.53
interaction score (4H536-AA): -0.234
interaction score (4H2865-AA): 0.229
interaction score (4H710-AA): -1.99
interaction score (4H2253-AA): -1.29
interaction score (4H3753-AA): -0.89
interaction score (4H3381-AA): -0.659
interaction score (4H3865-AA): 0.833
interaction score (4H3009-AA): -1.02
interaction score (4H1864-AA): 0.43
interaction score (4H3395-AA): -1.14
interaction score (4H1877-AA): 2.43
interaction score (4H850-AA): 1.96
interaction score (4H797-AA): 0.0984
interaction score (4H1626-AA): -1.36
interaction score (4H745-AA): -1.15
interaction score (4H909-AA): -1.1
interaction score (4H94-AA): -0.751
interaction score (4H174-AA): -0.236
Binder: DENAALKAEIAALEAKNAALKAKIAALEG [4H1597-AA]

interaction score (4H3592-bA): -0.131
interaction score (4H4038-bA): -0.458
interaction score (4H3907-bA): 0.467
interaction score (4H3601-bA): -0.03
interaction score (P4A-bH): 1.36
Binder: DKNAQLKQEIAELEQEIAELEWKNAQLKQ [4H3592-bA]
